The values that follow come from PMC12669963, “PGAM5 cleavage and oligomerization equilibrates mitochondrial dynamics under stress by regulating DRP1 function” (Journal of Cell Science, 2025).

The series deals with the molecule itself. In words: native gel or EMSA; native-PAGE of U2OS lysates (50 mM Tris-HCl pH 7.4, 150 mM NaCl, 0.5% Triton X-100), steady state or CCCP, immunoblot for endogenous PGAM5.

B1: endogenous PGAM5 (natural protein, human (endogenous in HEK293 and U2OS), UniProt Q96HS1 1-289, looked up)
chain: MAFRQALQLAACGLAGGSAAVLFSAVAVGKPRAGGDAEPRPAEPPAWAGGARPGPGVWDPNWDRREPLSLINVRKRNVESGEEELASKLDHYKAKATRHIFLIRHSQYHVDGSLEKDRTLTPLGREQAELTGLRLASLGLKFNKIVHSSMTRAIETTDIISRHLPGVCKVSTDLLREGAPIEPDPPVSHWKPEAVQYYEDGARIEAAFRNYIHRADARQEEDSYEIFICHANVIRYIVCRALQFPPEGWLRLSLNNGSITHLVIRPNGRVALRTLGDTGFMPPDKITRS
notes: endogenous PGAM5; source: endogenous, HEK293 and U2OS lysate
B1: the “stoichiometry N” value was found to be 2.

For orientation: stoichiometry N means a count of units in the complex or per binding partner.
